Experimental data published in patent US20100075907A1, “NEUROMEDIN U RECEPTOR AGONISTS AND USES THEREOF” (priority 2006, published 2010).
Residues, ends and D or L forms follow the SMILES beside them. *: point of attachment. Succinimide(1-Et,3-yl) = CCN1C(=O)CC(*)C1=O; Palmitoyl = CCCCCCCCCCCCCCCC(=O)*

Key:
Type in all cases: cell-based
rat NMUR1-TTG = target: T1, rat NMUR1-TTG (Rattus norvegicus, UniProt Q9JJI5); experiment: FLIPR calcium mobilization assay, rat NMUR1-TTG; parameters: expressed in transfected cells; host or cells: FLP-In CHO or HEK-293 FLP-In cells (pcDNA5); settings: rat NMUR1-TTG; for % Activity: maximum response at 1 μM compared to hNMU-25; for EC50: FLIPR
T1 sequence (Q9JJI5 1-425): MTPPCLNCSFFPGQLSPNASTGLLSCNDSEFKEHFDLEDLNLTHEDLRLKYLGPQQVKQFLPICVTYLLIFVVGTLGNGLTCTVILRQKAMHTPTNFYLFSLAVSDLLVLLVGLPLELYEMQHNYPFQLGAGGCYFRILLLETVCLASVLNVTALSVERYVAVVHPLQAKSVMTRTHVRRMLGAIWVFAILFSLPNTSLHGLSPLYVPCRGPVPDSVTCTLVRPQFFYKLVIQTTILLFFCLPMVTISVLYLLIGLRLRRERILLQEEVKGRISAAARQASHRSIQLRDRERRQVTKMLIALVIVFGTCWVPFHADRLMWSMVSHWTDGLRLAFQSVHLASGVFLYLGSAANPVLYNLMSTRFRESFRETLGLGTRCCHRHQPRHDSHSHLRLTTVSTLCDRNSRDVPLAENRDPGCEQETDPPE
From the text: (§1) Human, mouse or rat cDNAs encoding NMUR1 or NMUR2 (as described in Howard et al. Nature 406: 70-74 (2000) were subcloned in pcDNA5 (Invitrogen) and transfected into FLP-In CHO cells and HEK-293 FLP-In cells purchased from Invitrogen (Carlsbad, Calif.) using lipofectamine (Invitrogen). The Flp-In system allows integration and expression of a particular gene of interest at a specific genomic location utilizing the Flp recombinase from yeast. The transfected cells were selected by growth in medium containing 200 μg/mL hygromycin (Invitrogen). Populations were frozen at early passage numbers, and these stocks were used for further studies. Stable clones that expressed the mRNAs were identified functionally by FLIPR as well as by RT-PCR. […] Two different rodent NMUR1 cell lines were thus generated: one with the codon as predicted from the genomic databases and another cell line with an engineered methionine (ATG) as the start codon. Additionally, stable cell lines expressing the human receptors were generated in HEK-293/aeq17 cells which stably express the aequorin gene under the CMV promoter. The human NMUR2 cDNA was cloned into pcDNA3.1 and human NMUR1 was subcloned into pIRES-puro (Clontech, Mountain View, Calif.), after transfection cells were selected in media containing G418 and either hygromycin (NMUR2) or puromycin (NMUR1).
(§2) The NMU receptors signal primarily through Gαq/11 proteins; therefore calcium mobilization assays can be utilized for functional activity.
(§3) Stable cell lines expressing human and or rodent NMUR1 or human NMUR2 receptors were plated at a density of 12,000 cells per well overnight on poly-lysine coated 384-well black-walled plates. The following day, the media was removed from the plates and the cells were subsequently loaded with Fluo-3 (Molecular Probes), a calcium sensitive dye, diluted in FLIPR buffer (1× Hank's buffered saline containing 20 mM HEPES, 0.1% BSA, 2.5 mM probenecid (Sigma) and 1.6 mM TR40). All reagents are from Invitrogen unless otherwise noted. Peptide stocks were resuspended in DMSO at a stock concentration of 2 mM and diluted in FLIPR buffer on the day of the experiment to a 4 μM working stock solution.
(§4) After a 90 minute incubation at room-temperature, cell plates were loaded onto a FLIPR (Molecular Devices) to monitor cellular fluorescence (excitation=488 nm; emission=540 nm) before and after compound/peptide addition. Eight to twelve point dose responses were tested on NMUR-expressing cell lines using FLIPR with 1 μM peptide as the highest dose. The response after peptide addition was taken as the maximum fluorescence units minus the fluorescence immediately prior to stimulation for each well. EC50 values were calculated using GraphPad Prism (San Diego, Calif.) software.
(§5) In vitro responses of Neuromedin U receptor agonists (NMU1 to NMU25) in the FLIPR assay for human (Table 3), mouse (Table 4) and rat (Table 5) NMUR1 and NMUR2. EC50s are reported in nM values. Percent activity refers to the maximum response at 1 μM compared to the hNMU-25 response at the same concentration. NT=not tested.

rat NMUR2 = rat NMUR2 (Rattus norvegicus, UniProt Q9ESQ4); experiment: FLIPR calcium mobilization assay, rat NMUR2; parameters: expressed in transfected cells; host or cells: FLP-In CHO or HEK-293 FLP-In cells (pcDNA5); settings: rat NMUR2; for % Activity: maximum response at 1 μM compared to hNMU-25; for EC50: FLIPR
rat NMUR2, sequence (Q9ESQ4 whole entry): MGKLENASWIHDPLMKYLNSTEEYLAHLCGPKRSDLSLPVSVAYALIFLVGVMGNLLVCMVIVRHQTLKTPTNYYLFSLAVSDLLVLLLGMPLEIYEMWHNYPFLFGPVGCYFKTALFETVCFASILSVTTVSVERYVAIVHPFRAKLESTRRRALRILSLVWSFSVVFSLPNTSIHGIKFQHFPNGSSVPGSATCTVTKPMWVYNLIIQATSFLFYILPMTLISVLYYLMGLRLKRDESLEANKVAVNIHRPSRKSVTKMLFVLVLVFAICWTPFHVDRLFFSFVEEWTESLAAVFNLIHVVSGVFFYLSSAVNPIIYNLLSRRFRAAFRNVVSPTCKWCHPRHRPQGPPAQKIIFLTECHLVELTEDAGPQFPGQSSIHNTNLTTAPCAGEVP
From the text: as §1, §2, §3, §4, §5

hNMUR2 = hNMUR2 (Homo sapiens, UniProt Q9GZQ4); experiment: FLIPR calcium mobilization assay, human NMUR2; parameters: expressed in transfected cells; host or cells: FLP-In CHO or HEK-293 FLP-In cells (pcDNA5); HEK-293/aeq17 lines (pcDNA3.1) were also made; settings: human NMUR2; for % Activity: maximum response at 1 μM compared to hNMU-25; for EC50: FLIPR
hNMUR2, sequence (Q9GZQ4 whole entry): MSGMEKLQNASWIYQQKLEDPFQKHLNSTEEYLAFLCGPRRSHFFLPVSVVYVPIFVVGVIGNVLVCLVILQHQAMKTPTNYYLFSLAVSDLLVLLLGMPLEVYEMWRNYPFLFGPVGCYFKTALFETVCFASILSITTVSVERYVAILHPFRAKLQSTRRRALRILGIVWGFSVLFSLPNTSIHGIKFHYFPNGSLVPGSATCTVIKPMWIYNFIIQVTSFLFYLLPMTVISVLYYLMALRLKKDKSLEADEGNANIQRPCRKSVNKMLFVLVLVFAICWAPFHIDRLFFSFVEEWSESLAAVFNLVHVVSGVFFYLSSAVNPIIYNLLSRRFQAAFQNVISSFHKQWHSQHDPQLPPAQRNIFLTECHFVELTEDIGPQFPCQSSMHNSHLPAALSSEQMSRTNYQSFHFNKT

hNMUR1 = target: T2, hNMUR1 (Homo sapiens, UniProt Q9HB89); experiment: FLIPR calcium mobilization assay, human NMUR1; parameters: expressed in transfected cells; host or cells: FLP-In CHO or HEK-293 FLP-In cells (pcDNA5); HEK-293/aeq17 lines (pIRES-puro) were also made; settings: human NMUR1; for % Activity: maximum response at 1 μM compared to hNMU-25 response at same concentration; for EC50: FLIPR
T2 sequence (Q9HB89 1-426): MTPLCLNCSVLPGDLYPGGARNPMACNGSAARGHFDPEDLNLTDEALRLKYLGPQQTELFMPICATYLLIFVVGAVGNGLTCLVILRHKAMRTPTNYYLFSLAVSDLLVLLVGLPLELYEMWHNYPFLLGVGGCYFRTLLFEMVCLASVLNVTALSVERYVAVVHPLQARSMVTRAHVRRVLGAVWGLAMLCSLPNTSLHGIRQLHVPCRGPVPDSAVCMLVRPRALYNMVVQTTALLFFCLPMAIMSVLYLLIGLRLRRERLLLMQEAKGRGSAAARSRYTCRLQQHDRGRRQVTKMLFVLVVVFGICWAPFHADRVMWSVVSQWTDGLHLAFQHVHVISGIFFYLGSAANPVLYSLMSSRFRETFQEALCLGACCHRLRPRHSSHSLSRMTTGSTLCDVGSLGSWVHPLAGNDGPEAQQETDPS

% Activity (rat NMUR1-TTG) | % Activity (rat NMUR2) | % Activity (hNMUR2) | % Activity (hNMUR1) | EC50 (rat NMUR1-TTG) | EC50 (rat NMUR2) | EC50 (hNMUR2) | EC50 (hNMUR1) | Compound
67.7% | 52.2% | 63.9% | 34.4% | – | – | – | – | CCCCCCCCCCCCCCCC(=O)N[C@@H](CSC1CC(=O)N(CC)C1=O)C(=O)N[C@@H](Cc1ccccc1)C(=O)N[C@@H](CCCNC(=N)N)C(=O)N[C@H](C(=O)N[C@@H](CC(=O)O)C(=O)N[C@@H](CCC(=O)O)C(=O)N[C@@H](CCC(=O)O)C(=O)N[C@@H](Cc1ccccc1)C(=O)N[C@@H](CCC(N)=O)C(=O)N[C@@H](CO)C(=O)N1CCC[C@H]1C(=O)N[C@@H](Cc1ccccc1)C(=O)N[C@@H](C)C(=O)N[C@@H](CO)C(=O)N[C@@H](CCC(N)=O)C(=O)N[C@@H](CO)C(=O)N[C@@H](CCCNC(=N)N)C(=O)NCC(=O)N[C@@H](Cc1ccc(O)cc1)C(=O)N[C@@H](Cc1ccccc1)C(=O)N[C@@H](CC(C)C)C(=O)N[C@@H](Cc1ccccc1)C(=O)N[C@@H](CCCNC(=N)N)C(=O)N1CCC[C@H]1C(=O)N[C@@H](CCCNC(=N)N)C(=O)N[C@@H](CC(N)=O)C(N)=O)C(C)C (stereo partly shown) [NMU24] (Palmitoyl-C(Succinimide(1-Et,3-yl))FRVDEEFQSPFASQSRGYFLFRPRN-NH2)
93.8% | – | – | – | 24.4 nM | 16.9 nM | 13 nM | 16.4 nM | Ac-C2FQSPFASQSRGYFLFRPRN-CONH2 ({Ac-C(PEG 40 kDa)}-FQSPFASQSRGYFLFRPRN-NH2; not fully specified; printed as Ac-C2FQSPFASQSRGYFLFRPRN-CONH2) [NMU20, C2 = Cys(PEG)240 kDa]
77.5% | 99.2% | 97.9% | 93.2% | 220 nM | 7 nM | 24.2 nM | 14.5 nM | Ac-C4FRVDEEFQSPFASQSRGYFLFRPRN-CONH2 ({Ac-C(PEG 20 kDa)}-FRVDEEFQSPFASQSRGYFLFRPRN-NH2) [NMU21, C4 = Cys(PEG)20 kDa]
93.5% | 96.4% | 98.8% | 83.0% | 81 nM | 37.8 nM | 44.1 nM | 168 nM | Pam-C2FRVDEEFQSPFASQSRGYFLFRPRN-CONH2 ({Palmitoyl-C(PEG 40 kDa)}-FRVDEEFQSPFASQSRGYFLFRPRN-NH2) [NMU25, Pam = palmitoyl; C2 = Cys(PEG)240 kDa]
